Results on 1 protein are retold here after FireProtDB (doi:10.1021/bi000442n).

Where “and” joins values, the source holds several entries; their conditions need not be identical. Identical values can stand only once.

The conditions of this series: Mus musculus; pH 7.5; Thermal; CD; KH2PO4-K2HPO4 10 mM; NaCl 0.0 mM; reversible: yes; whole UniProt chain shown.

B1: Signal peptide peptidase wild type, Q9D8V0 (protein)
chain: MDSAVSDPHNGSAEAGTPANGTTRPPSTPEGIALAYGSLLLMALLPIFFGALRSVRCARGKSSSDMPETITSRDAARFPIIASCTLLGLYLFFKIFSQEYINLLLSMYFFVLGILALSHTISPFMNKFFPANFPNRQYQLLFTQGSGENKEEIINYEFDTKDLVCLGLSSVVGVWYLLRKHWIANNLFGLAFSLNGVELLHLNNVSTGCILLGGLFIYDIFWVFGTNVMVTVAKSFEAPIKLVFPQDLLEKGLEADNFAMLGLGDIVIPGIFIALLLRFDISLKKNTHTYFYTSFAAYIFGLGLTIFIMHIFKHAQPALLYLVPACIGFPVLVALAKGEVAEMFSYEESNPKDPAAETESKEESTEASASKRLEKKEK
Consider B1, for which the Tm was 43.7 °C and 41 °C.

In general, Tm refers to the temperature at the midpoint of the melting transition.
